Measured values as given in the supplement of paper PMC11316812.
± gives the standard deviation of the averaged measurements.

How the values were obtained:
MCF7 = assay: percentage of EdU-negative (G0-arrested) nuclei per well, 72 h; higher = more G0 arrest; settings: reference: sequence is the full UniProt precursor, the tested protein was the secreted form or ectodomain
hTERT-HMEC = assay: as above; settings: reference: sequence is the full UniProt precursor, the tested protein was the secreted form or ectodomain
[1] = protein concentration 0.0155 µM
[2] = protein concentration 0.0075 µM
[3] = protein concentration 0.017475 µM
[4] = protein concentration 0.17475 µM
[5] = protein concentration 0.0225 µM
[6] = protein concentration 0.02275 µM
[7] = protein concentration 0.2275 µM
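Further: secreted proteins added to cultured cells, EdU pulse at the end, nuclei found by Hoechst imaging, EdU status from nuclear versus surrounding ring intensity ratio, PBS as neutral control.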

Sequence: MTVARPSVPAALPLLGELPRLLLLVLLCLPAVWGDCGLPPDVPNAQPALEGRTSFPEDTVITYKCEESFVKIPGEKDSVICLKGSQWSDIEEFCNRSCEVPTRLNSASLKQPYITQNYFPVGTVVEYECRPGYRREPSLSPKLTCLQNLKWSTAVEFCKKKSCPNPGEIRNGQIDVPGGILFGATISFSCNTGYKLFGSTSSFCLISGSSVQWSDPLPECREIYCPAPPQIDNGIIQGERDHYGYRQSVTYACNKGFTMIGEHSIYCTVNNDEGEWSGPPPECRGKSLTSKVPPTVQKPTTVNVPTTEVSPTSQKTTTKTTTPNAQATRSTPVSRTTKHFHETTPNKGSGTTSGTTRLLSGHTCFTLTGLLGTLVTMGLLT
- percentage of EdU-negative (MCF7; [1]): 26.2 ± 1%
- percentage of EdU-negative (MCF7; protein concentration 0.155 µM): 26.1 ± 1.8%
- percentage of EdU-negative (hTERT-HMEC; [1]): 4.51 ± 0.44%
- percentage of EdU-negative (hTERT-HMEC; protein concentration 0.155 µM): 7.07 ± 0.42%

Sequence: MAFPPRRRLRLGPRGLPLLLSGLLLPLCRAFNLDVDSPAEYSGPEGSYFGFAVDFFVPSASSRMFLLVGAPKANTTQPGIVEGGQVLKCDWSSTRRCQPIEFDATGNRDYAKDDPLEFKSHQWFGASVRSKQDKILACAPLYHWRTEMKQEREPVGTCFLQDGTKTVEYAPCRSQDIDADGQGFCQGGFSIDFTKADRVLLGGPGSFYWQGQLISDQVAEIVSKYDPNVYSIKYNNQLATRTAQAIFDDSYLGYSVAVGDFNGDGIDDFVSGVPRAARTLGMVYIYDGKNMSSLYNFTGEQMAAYFGFSVAATDINGDDYADVFIGAPLFMDRGSDGKLQEVGQVSVSLQRASGDFQTTKLNGFEVFARFGSAIAPLGDLDQDGFNDIAIAAPYGGEDKKGIVYIFNGRSTGLNAVPSQILEGQWAARSMPPSFGYSMKGATDIDKNGYPDLIVGAFGVDRAILYRARPVITVNAGLEVYPSILNQDNKTCSLPGTALKVSCFNVRFCLKADGKGVLPRKLNFQVELLLDKLKQKGAIRRALFLYSRSPSHSKNMTISRGGLMQCEELIAYLRDESEFRDKLTPITIFMEYRLDYRTAADTTGLQPILNQFTPANISRQAHILLDCGEDNVCKPKLEVSVDSDQKKIYIGDDNPLTLIVKAQNQGEGAYEAELIVSIPLQADFIGVVRNNEALARLSCAFKTENQTRQVVCDLGNPMKAGTQLLAGLRFSVHQQSEMDTSVKFDLQIQSSNLFDKVSPVVSHKVDLAVLAAVEIRGVSSPDHVFLPIPNWEHKENPETEEDVGPVVQHIYELRNNGPSSFSKAMLHLQWPYKYNNNTLLYILHYDIDGPMNCTSDMEINPLRIKISSLQTTEKNDTVAGQGERDHLITKRDLALSEGDIHTLGCGVAQCLKIVCQVGRLDRGKSAILYVKSLLWTETFMNKENQNHSYSLKSSASFNVIEFPYKNLPIEDITNSTLVTTNVTWGIQPAPMPVPVWVIILAVLAGLLLLAVLVFVMYRMGFFKRVRPPQEEQEREQLQPHENGEGNSET
- percentage of EdU-negative (MCF7; [2]): 25.7 ± 3.1%
- percentage of EdU-negative (MCF7; protein concentration 0.075 µM): 28.8 ± 2%
- percentage of EdU-negative (hTERT-HMEC; [2]): 5.23 ± 0.5%
- percentage of EdU-negative (hTERT-HMEC; protein concentration 0.075 µM): 7.03 ± 1%

Sequence: MEWPARLCGLWALLLCAGGGGGGGGAAPTETQPPVTNLSVSVENLCTVIWTWNPPEGASSNCSLWYFSHFGDKQDKKIAPETRRSIEVPLNERICLQVGSQCSTNESEKPSILVEKCISPPEGDPESAVTELQCIWHNLSYMKCSWLPGRNTSPDTNYTLYYWHRSLEKIHQCENIFREGQYFGCSFDLTKVKDSSFEQHSVQIMVKDNAGKIKPSFNIVPLTSRVKPDPPHIKNLSFHNDDLYVQWENPQNFISRCLFYEVEVNNSQTETHNVFYVQEAKCENPEFERNVENTSCFMVPGVLPDTLNTVRIRVKTNKLCYEDDKLWSNWSQEMSIGKKRNSTLYITMLLIVPVIVAGAIIVLLLYLKRLKIIIFPPIPDPGKIFKEMFGDQNDDTLHWKKYDIYEKQTKEETDSVVLIENLKKASQ
- percentage of EdU-negative (MCF7; [3]): 26.4 ± 0.86%
- percentage of EdU-negative (MCF7; [4]): 26.6 ± 2%
- percentage of EdU-negative (hTERT-HMEC; [3]): 5.5 ± 0.74%
- percentage of EdU-negative (hTERT-HMEC; [4]): 5.19 ± 0.27%

Sequence: MSPHLTALLGLVLCLAQTIHTQEGALPRPSISAEPGTVISPGSHVTFMCRGPVGVQTFRLEREDRAKYKDSYNVFRLGPSESEARFHIDSVSEGNAGLYRCLYYKPPGWSEHSDFLELLVKESSGGPDSPDTEPGSSAGTVPGTEASGFDAP [Q6ISS4]
- percentage of EdU-negative (MCF7; [5]): 24.7 ± 0.63%
- percentage of EdU-negative (MCF7; protein concentration 0.225 µM): 27.9 ± 3.5%
- percentage of EdU-negative (hTERT-HMEC; [5]): 4.81 ± 0.34%
- percentage of EdU-negative (hTERT-HMEC; protein concentration 0.225 µM): 6.43 ± 0.35%

Sequence: MGILKLQVFLIVLSVALNHLKATPIESHQVEKRKCNTATCATQRLANFLVHSSNNFGAILSSTNVGSNTYGKRNAVEVLKREPLNYLPL
- percentage of EdU-negative (MCF7; [6]): 26.1 ± 1.4%
- percentage of EdU-negative (MCF7; [7]): 26.8 ± 4.2%
- percentage of EdU-negative (hTERT-HMEC; [6]): 4.22 ± 0.57%
- percentage of EdU-negative (hTERT-HMEC; [7]): 5.2 ± 0.82%
